Reference: publication PMC7949036, “Zinc transporter mutations linked to acrodermatitis enteropathica disrupt function and cause mistrafficking” (The Journal of Biological Chemistry, 2021)

Key:
[1] = confocal immunofluorescence, FITC anti-HA, nonpermeabilized cells; conditions: glycan lost; control: wild type
[2] = cell-based 65Zn uptake, HEK293T; conditions: glycan lost; control: wild type
[3] = molecular target: the molecule itself; assay: SEC; Superdex 200 10/300GL, 10 mM HEPES pH 7.3, 100 mM NaCl; apparent molecular weight estimated from protein standards; native purified protein

B1: hZIP4 (human ZIP4): N261Q (protein)
parent chain: MASLVSLELGLLLAVLVVTATASPPAGLLSLLTSGQGALDQEALGGLLNTLADRVHCANGPCGKCLSVEDALGLGEPEGSGLPPGPVLEARYVARLSAAAVLYLSNPEGTCEDARAGLWASHADHLLALLESPKALTPGLSWLLQRMQARAAGQTPKMACVDIPQLLEEAVGAGAPGSAGGVLAALLDHVRSGSCFHALPSPQYFVDFVFQQHSSEVPMTLAELSALMQRLGVGREAHSDHSHRHRGASSRDPVPLISSSNSSSVWDTVCLSARDVMAAYGLSEQAGVTPEAWAQLSPALLQQQLSGACTSQSRPPVQDQLSQSERYLYGSLATLLICLCAVFGLLLLTCTGCRGVTHYILQTFLSLAVGAVTGDAVLHLTPKVLGLHTHSEEGLSPQPTWRLLAMLAGLYAFFLFENLFNLLLPRDPEDLEDGPCGHSSHSHGGHSHGVSLQLAPSELRQPKPPHEGSRADLVAEESPELLNPEPRRLSPELRLLPYMITLGDAVHNFADGLAVGAAFASSWKTGLATSLAVFCHELPHELGDFAALLHAGLSVRQALLLNLASALTAFAGLYVALAVGVSEESEAWILAVATGLFLYVALCDMLPAMLKVRDPRPWLLFLLHNVGLLGGWTVLLLLSLYEDDITF
- localisation_or_trafficking [1]: no change
- other: transport activity [2]: decreases

B2: extracellular domain of ZIP4 from Pteropus alecto (black fruit bat), wild type (domain or fragment, UniProt L5KLU7 36-322, looked up)
chain: SGQGALDRVALGGLLNTLAARVHCTSGPCGKCLSVDDLLALGRPEEPGHLARLSAAAALYLSDPEGTCEDIRAGRWASRADHLLALLEGPKALAPGLSRLLQRIQAQTTGQPSAGEACVDPPQLLREAGVAGAPGSPGPVLATLLEHVGRGSCFHTLPTPQYFVDFVFQQSHGNTPNISVAELAALMQRLGVGGVTETHSDHHHQEKRVNRQGPTPLTAPNSSSDTWDTVCLSARDVMAVYGLSEQTGVTPEAWAQLSPALLQQQLSGACSPQPSHPAQNQLSQAEK
notes: ZIP4 (zinc transporter, SLC39A family) of Pteropus alecto, extracellular domain, residues 36-322 of ELK11751; His6 tag removed by thrombin; also called pZIP4-ECD; wild-type pZIP4-ECD; source: E. coli Origami B(DE3) pLysS, purified (Ni-NTA, Mono-Q, SEC); not shown: His6, N-terminal, cleaved
- stoichiometry N [3]: 2

B3: pZIP4-ECD C64R variant (domain or fragment, Pteropus alecto, UniProt L5KLU7 36-322, looked up)
chain: SGQGALDRVALGGLLNTLAARVHCTSGPRGKCLSVDDLLALGRPEEPGHLARLSAAAALYLSDPEGTCEDIRAGRWASRADHLLALLEGPKALAPGLSRLLQRIQAQTTGQPSAGEACVDPPQLLREAGVAGAPGSPGPVLATLLEHVGRGSCFHTLPTPQYFVDFVFQQSHGNTPNISVAELAALMQRLGVGGVTETHSDHHHQEKRVNRQGPTPLTAPNSSSDTWDTVCLSARDVMAVYGLSEQTGVTPEAWAQLSPALLQQQLSGACSPQPSHPAQNQLSQAEK
notes: ZIP4 of Pteropus alecto, extracellular domain, residues 36-322 of ELK11751, with C64R (equivalent to C62R of human ZIP4); source: E. coli Origami B(DE3) pLysS, purified (Ni-NTA, Mono-Q, SEC); not shown: His6, N-terminal, cleaved
- binding result [3]: binds

B4: pZIP4-ECD R87C variant (domain or fragment, Pteropus alecto, UniProt L5KLU7 36-322, looked up)
chain: SGQGALDRVALGGLLNTLAARVHCTSGPCGKCLSVDDLLALGRPEEPGHLACLSAAAALYLSDPEGTCEDIRAGRWASRADHLLALLEGPKALAPGLSRLLQRIQAQTTGQPSAGEACVDPPQLLREAGVAGAPGSPGPVLATLLEHVGRGSCFHTLPTPQYFVDFVFQQSHGNTPNISVAELAALMQRLGVGGVTETHSDHHHQEKRVNRQGPTPLTAPNSSSDTWDTVCLSARDVMAVYGLSEQTGVTPEAWAQLSPALLQQQLSGACSPQPSHPAQNQLSQAEK
notes: ZIP4 of Pteropus alecto, extracellular domain, residues 36-322 of ELK11751, with R87C (equivalent to R95C of human ZIP4); source: E. coli Origami B(DE3) pLysS, purified (Ni-NTA, Mono-Q, SEC); not shown: His6, N-terminal, cleaved
- binding result [3]: binds

B5: pZIP4-ECD A91T variant (domain or fragment, Pteropus alecto, UniProt L5KLU7 36-322, looked up)
chain: SGQGALDRVALGGLLNTLAARVHCTSGPCGKCLSVDDLLALGRPEEPGHLARLSATAALYLSDPEGTCEDIRAGRWASRADHLLALLEGPKALAPGLSRLLQRIQAQTTGQPSAGEACVDPPQLLREAGVAGAPGSPGPVLATLLEHVGRGSCFHTLPTPQYFVDFVFQQSHGNTPNISVAELAALMQRLGVGGVTETHSDHHHQEKRVNRQGPTPLTAPNSSSDTWDTVCLSARDVMAVYGLSEQTGVTPEAWAQLSPALLQQQLSGACSPQPSHPAQNQLSQAEK
notes: ZIP4 of Pteropus alecto, extracellular domain, residues 36-322 of ELK11751, with A91T (equivalent to A99T of human ZIP4); source: E. coli Origami B(DE3) pLysS, purified (Ni-NTA, Mono-Q, SEC); not shown: His6, N-terminal, cleaved
- binding result [3]: binds

B6: pZIP4-ECD P193L variant (domain or fragment, Pteropus alecto, UniProt L5KLU7 36-322, looked up)
chain: SGQGALDRVALGGLLNTLAARVHCTSGPCGKCLSVDDLLALGRPEEPGHLARLSAAAALYLSDPEGTCEDIRAGRWASRADHLLALLEGPKALAPGLSRLLQRIQAQTTGQPSAGEACVDPPQLLREAGVAGAPGSPGPVLATLLEHVGRGSCFHTLLTPQYFVDFVFQQSHGNTPNISVAELAALMQRLGVGGVTETHSDHHHQEKRVNRQGPTPLTAPNSSSDTWDTVCLSARDVMAVYGLSEQTGVTPEAWAQLSPALLQQQLSGACSPQPSHPAQNQLSQAEK
notes: ZIP4 of Pteropus alecto, extracellular domain, residues 36-322 of ELK11751, with P193L (equivalent to P200L of human ZIP4); source: E. coli Origami B(DE3) pLysS, purified (Ni-NTA, Mono-Q, SEC); not shown: His6, N-terminal, cleaved
- binding result [3]: binds
